Measurements: article PMC7784689, “Structural mechanism of phospholipids translocation by MlaFEDB complex” (Cell Research, 2020)
Numbering of substitutions follows the chain as printed.

B1: MlaE (natural protein, E. coli K-12, UniProt P64606 1-260, looked up)
chain: MLLNALASLGHKGIKTLRTFGRAGLMLFNALVGKPEFRKHAPLLVRQLYNVGVLSMLIIVVSGVFIGMVLGLQGYLVLTTYSAETSLGMLVALSLLRELGPVVAALLFAGRAGSALTAEIGLMRATEQLSSMEMMAVDPLRRVISPRFWAGVISLPLLTVIFVAVGIWGGSLVGVSWKGIDSGFFWSAMQNAVDWRMDLVNCLIKSVVFAITVTWISLFNGYDAIPTSAGISRATTRTVVHSSLAVLGLDFVLTALMFGN
notes: MlaE, the transmembrane (permease) subunit of the MlaFEDB ABC transporter, E. coli K-12; expressed from the full mlaFEDCB operon amplified from genomic DNA; Homodimer within the 2:2:6:2 MlaFEDB complex; also called TMD protein MlaE
B2: MlaD (natural protein, E. coli K-12, UniProt P64604 1-183, looked up)
chain: MQTKKNEIWVGIFLLAALLAALFVCLKAANVTSIRTEPTYTLYATFDNIGGLKARSPVSIGGVVVGRVADITLDPKTYLPRVTLEIEQRYNHIPDTSSLSIRTSGLLGEQYLALNVGFEDPELGTAILKDGDTIQDTKSAMVLEDLIGQFLYGSKGDDNKNSGDAPAAAPGNNETTEPVGTTK
notes: expressed from the full mlaFEDCB operon amplified from genomic DNA; Homo-hexamer within the 2:2:6:2 MlaFEDB complex
B3: MlaF (natural protein, E. coli K-12, UniProt P63386 1-269, looked up)
chain: MEQSVANLVDMRDVSFTRGNRCIFDNISLTVPRGKITAIMGPSGIGKTTLLRLIGGQIAPDHGEILFDGENIPAMSRSRLYTVRKRMSMLFQSGALFTDMNVFDNVAYPLREHTQLPAPLLHSTVMMKLEAVGLRGAAKLMPSELSGGMARRAALARAIALEPDLIMFDEPFVGQDPITMGVLVKLISELNSALGVTCVVVSHDVPEVLSIADHAWILADKKIVAHGSAQALQANPDPRVRQFLDGIADGPVPFRYPAGDYHADLLPGS
notes: expressed from the full mlaFEDCB operon amplified from genomic DNA; Homodimer within the 2:2:6:2 MlaFEDB complex; also called NBD protein MlaF
B4: MlaF E170Q (natural protein, E. coli K-12, UniProt P63386 1-269, looked up)
chain: B3 chain with E170Q
notes: MlaF, E. coli K-12, with the catalytic glutamate of Walker B changed to glutamine; expressed from the full mlaFEDCB operon; PDB 7CGE holds the wild-type parent; also called MlaFEQ; EQ mutant; source: E. coli C43(DE3), co-expressed from mutated pET20b-mlaFEDCB, purified as MlaFEQEDB, in nanodisc

What was measured:
[1] = target: the molecule itself; assay: cryo-EM structure; nucleotide-free MlaFEDB in POPG nanodisc (MSP1D1), 4 mg/mL, 25 mM Tris pH 7.8, 150 mM NaCl; 2.9 Å
MlaE = target: B1; assay: as above; conditions: both partners purified
[2] = target: the molecule itself; assay: cryo-EM structure; MlaFEQEDB (MlaF E170Q) in nanodisc, incubated with 2 mM ATP and 2 mM MgCl2 for 30 min at room temperature; two conformations, EQ_tall (4.3 Å) and EQ_close (3.7 Å)

B1
stoichiometry N [1]: 2

B2
stoichiometry N (MlaE): 3

B3
stoichiometry N [1]: 2

B4
stoichiometry N [2]: 2
